11 molecules from patent US20090191187A1 (published 2009) can be followed below.

Test [1] concerns the target T1, human interleukin-1 receptor on cells (MRC-5 human embryonic lung fibroblasts; human blood cells) (human, UniProt P14778 18-569).
T1 sequence (looked up): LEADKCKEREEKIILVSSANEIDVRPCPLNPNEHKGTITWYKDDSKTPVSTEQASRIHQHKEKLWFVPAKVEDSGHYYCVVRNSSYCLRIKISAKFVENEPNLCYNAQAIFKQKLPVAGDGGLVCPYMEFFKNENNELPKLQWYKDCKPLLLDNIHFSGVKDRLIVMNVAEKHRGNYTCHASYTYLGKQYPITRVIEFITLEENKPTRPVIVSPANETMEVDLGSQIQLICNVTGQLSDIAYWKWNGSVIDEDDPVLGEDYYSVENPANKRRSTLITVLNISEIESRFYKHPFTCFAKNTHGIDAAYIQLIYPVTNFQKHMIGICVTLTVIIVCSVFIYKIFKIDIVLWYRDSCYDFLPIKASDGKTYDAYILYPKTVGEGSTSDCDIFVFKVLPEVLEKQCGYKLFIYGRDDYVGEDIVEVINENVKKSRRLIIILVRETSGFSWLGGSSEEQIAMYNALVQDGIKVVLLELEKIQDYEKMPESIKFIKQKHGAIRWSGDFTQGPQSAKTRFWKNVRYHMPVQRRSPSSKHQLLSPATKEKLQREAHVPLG
Nature of the test: cell-based or functional assay.

The target in test [2] is T2, recombinant soluble human type 1 IL-1 receptor (extracellular domain, glycosylated) (human, UniProt P14778 21-333, N-glycosylated (from SF9 insect cells); biotinylated in the ELISA of Examples 2 and 4c).
T2 construct: also called hIL-1R; rshIL-1R
T2 sequence: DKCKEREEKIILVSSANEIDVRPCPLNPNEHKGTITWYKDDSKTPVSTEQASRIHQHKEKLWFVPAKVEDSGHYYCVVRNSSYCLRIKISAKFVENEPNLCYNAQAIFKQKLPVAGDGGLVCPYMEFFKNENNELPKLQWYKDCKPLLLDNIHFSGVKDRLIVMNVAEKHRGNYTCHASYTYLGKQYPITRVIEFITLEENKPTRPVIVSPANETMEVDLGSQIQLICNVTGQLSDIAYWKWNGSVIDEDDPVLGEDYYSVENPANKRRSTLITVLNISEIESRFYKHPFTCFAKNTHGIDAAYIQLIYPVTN
As to the kind of experiment: ELISA on biotinylated human IL-1R on streptavidin plates. As for the experimental part: The relative immunactivity of the antibodies as compared to 2D8 antibody was determined by ELISA. A soluble biotinylated human IL-1R was coated at room temperature for one hour to 96-well-plates (precoated with streptavidin). After blocking with BSA the antibody was diluted and added to the wells and incubated at room temperature for two hours. The plates were washed three times and incubated with horse-radish-peroxidase (POD)-conjugated rabbit-anti-rat-IgG at room temperature for one hour. After further washing the amount of bound antibody was determined by addition of TM-Blue® ([…]) and measurement of the absorbance at 370 nm.
For orientation: An ELISA detects its analyte on a solid surface through an enzyme-linked reagent.

B1: DEI5/4 (antibody, V domains shown)
VH: QLQLQESGPGLVKPSQTLSLTCTVSGLSLTSNSITWIRQPPGKGPEWMGMIWSNGDTDYSTSLKSRLTISKDTSKSQVVLTMTNMDPVDTATYYCARYNYYFDYWGQGTLVTVSS
VL: DIVLTQSPATLSLSPGERATLSCKASQNVDNRGVSYVHWYQQKPGQAPKLLIYKGSNLAFGVPARFSGSGSGTDFTLTISSLQPEDFATYYCQQSKGHPDTFGAGTKLELK
In the case of B1, in test [1], the “Bioassay (IC50 in relation to 2D8), 1st experiment” value (shortened to “Bioassay … 1st experiment”) is 3.1 relative to 2D8; the “Bioassay (IC50 in relation to 2D8), 2nd experiment” value (“Bioassay … 2nd experiment” for short) is 1.9 relative to 2D8; the “Bioassay (IC50 in relation to 2D8), Mean” value is 2.5 relative to 2D8.

B2: DEI4/7 (antibody, V domains shown)
VH: QLQLQESGPGLVKPSQTLSLTCTVSGLSLTSNSITWIRQPPGKGPEWMGMIWSNGDTDYNSAFTSRFTISRDNSKNTLYLQMNSLKTEDTAVYYCARYNYYFDYWGQGTLVTVSS
VL: DIVLTQSPATLSLSPGERATLSCKASQNVDNRGVSYVHWYQQKPGQAPKLLIYKGSNLAFGVPARFSGSGSGTDFTLTISSLQPEDFATYFCQQSKGHPDTFGAGTKLELK
For B2, in test [1], the “Bioassay … 1st experiment” value was 3.4 relative to 2D8; the “Bioassay … 2nd experiment” value was 3.5 relative to 2D8; the “Bioassay (IC50 in relation to 2D8), Mean” value was 3.5 relative to 2D8.

B3: DEI4/5 (antibody, V domains shown)
VH: QLQLQESGPGLVKPSQTLSLTCTVSGLSLTSNSITWIRQPPGKGPEWMGMIWSNGDTDYNSAFTSRFTISRDNSKNTLYLQMNSLKTEDTAVYYCARYNYYFDYWGQGTLVTVSS
VL: DIVLTQSPATLSLSPGERATISCKASQNVDNRGVSYVHWYQQKPGQAPKLLIYKGSNLAFGVPARFSGSGSGTDFTLTISSLQPEDFATYYCQQSKGHPDTFGAGTKLELK
notes: also called combination of HURDIVHv4 and HURDIVKv5
Take B3: in test [2], the “ELISA (absorbance at 370 nm in relation to 2D8), 1st experiment” value (“ELISA … 1st experiment” below) was 3 relative to 2D8; the “ELISA (absorbance at 370 nm in relation to 2D8), 2nd experiment” value (from here on “ELISA … 2nd experiment”) is 2.2 relative to 2D8; the “ELISA (absorbance at 370 nm in relation to 2D8), mean” value (shortened to “ELISA … mean”) is 2.6 relative to 2D8. Further, in test [1], the “Bioassay … 1st experiment” value is 1.5 relative to 2D8; the “Bioassay … 2nd experiment” value was 4.5 relative to 2D8; the “Bioassay (IC50 in relation to 2D8), Mean” value is 3 relative to 2D8.

B4: DEI5/5 (antibody, V domains shown)
VH: QLQLQESGPGLVKPSQTLSLTCTVSGLSLTSNSITWIRQPPGKGPEWMGMIWSNGDTDYSTSLKSRLTISKDTSKSQVVLTMTNMDPVDTATYYCARYNYYFDYWGQGTLVTVSS
VL: DIVLTQSPATLSLSPGERATISCKASQNVDNRGVSYVHWYQQKPGQAPKLLIYKGSNLAFGVPARFSGSGSGTDFTLTISSLQPEDFATYYCQQSKGHPDTFGAGTKLELK
notes: also called combination of HURDIVHv5 and HURDIVKv5
B4: in test [2], the “ELISA … 1st experiment” value was 3.1 relative to 2D8; the “ELISA … 2nd experiment” value is 3.4 relative to 2D8; the “ELISA … mean” value was 3.3 relative to 2D8. Further, in test [1], the “Bioassay … 1st experiment” value was 5.2 relative to 2D8; the “Bioassay … 2nd experiment” value is 3.9 relative to 2D8; the “Bioassay (IC50 in relation to 2D8), Mean” value is 4.6 relative to 2D8.

B5: DEI5/7 (antibody, V domains shown)
VH: QLQLQESGPGLVKPSQTLSLTCTVSGLSLTSNSITWIRQPPGKGPEWMGMIWSNGDTDYSTSLKSRLTISKDTSKSQVVLTMTNMDPVDTATYYCARYNYYFDYWGQGTLVTVSS
VL: DIVLTQSPATLSLSPGERATLSCKASQNVDNRGVSYVHWYQQKPGQAPKLLIYKGSNLAFGVPARFSGSGSGTDFTLTISSLQPEDFATYFCQQSKGHPDTFGAGTKLELK
In the case of B5, in test [1], the “Bioassay … 1st experiment” value was 3.4 relative to 2D8; the “Bioassay … 2nd experiment” value was 1.2 relative to 2D8; the “Bioassay (IC50 in relation to 2D8), Mean” value is 2.3 relative to 2D8.

B6: DEI1/8 (antibody, V domains shown)
VH: QLQLQESGPGLVKPSQTLSLTCTVSGLSLTSNSITWVRQAPGQGLEWMGMIWSNGDTDYNSAFTSRFTISRDNSKNTLYLQMNSLKTEDTAVYYCARYNYYFDYWGQGTLVTVSS
VL: DIVLTQSPATLSLSPGERATLSCKASQNVDNRGVSYVHWYQQKPGQAPKLLIYKGSNLAFGVPSRFSGSGSGTDFTLTISSLQPEDFATYFCQQSKGHPDTFGAGTKLELK
With B6, in test [2], the “ELISA … 1st experiment” value was 2.1 relative to 2D8; the “ELISA … 2nd experiment” value is 2.2 relative to 2D8; the “ELISA … mean” value was 2.2 relative to 2D8. Besides, in test [1], the “Bioassay … 1st experiment” value was 3.2 relative to 2D8; the “Bioassay … 2nd experiment” value is 0.7 relative to 2D8; the “Bioassay (IC50 in relation to 2D8), Mean” value was 2 relative to 2D8.

B7: DEI2/9 (antibody, V domains shown)
VH: QLQLQESGPGLVKPSQTLSLTCTVSGLSLTSNSITWVRQAPGQGLEWMGMIWSNGDTDYSTSLKSRLTISKDTSKSQVVLTMTNMDPVDTATYYCARYNYYFDYWGQGTLVTVSS
VL: DIVLTQSPATLSLSPGERATLSCKASQNVDNRGVSYVHWYQQKPGQAPKLLIYKGSNLAFGVPSRFSGSGSGTDFTLTISSLQPEDFATYYCQQSKGHPDTFGAGTKLELK
notes: also called combination of HURDIVHv2 and HURDIVKv9
Turning to B7, in test [2], the “ELISA … 1st experiment” value is 1.4 relative to 2D8; the “ELISA … 2nd experiment” value is 1.8 relative to 2D8; the “ELISA … mean” value is 1.6 relative to 2D8. In test [1], the “Bioassay … 1st experiment” value was 2.7 relative to 2D8; the “Bioassay … 2nd experiment” value was 2.8 relative to 2D8; the “Bioassay (IC50 in relation to 2D8), Mean” value is 2.8 relative to 2D8.

B8: DEI4/9 (antibody, V domains shown)
VH: QLQLQESGPGLVKPSQTLSLTCTVSGLSLTSNSITWIRQPPGKGPEWMGMIWSNGDTDYNSAFTSRFTISRDNSKNTLYLQMNSLKTEDTAVYYCARYNYYFDYWGQGTLVTVSS
VL: DIVLTQSPATLSLSPGERATLSCKASQNVDNRGVSYVHWYQQKPGQAPKLLIYKGSNLAFGVPSRFSGSGSGTDFTLTISSLQPEDFATYYCQQSKGHPDTFGAGTKLELK
Regarding B8, in test [1], the “Bioassay … 1st experiment” value is 5.2 relative to 2D8; the “Bioassay … 2nd experiment” value was 4.1 relative to 2D8; the “Bioassay (IC50 in relation to 2D8), Mean” value is 4.7 relative to 2D8.

B9: DEI5/9 (antibody, V domains shown)
VH: QLQLQESGPGLVKPSQTLSLTCTVSGLSLTSNSITWIRQPPGKGPEWMGMIWSNGDTDYSTSLKSRLTISKDTSKSQVVLTMTNMDPVDTATYYCARYNYYFDYWGQGTLVTVSS
VL: DIVLTQSPATLSLSPGERATLSCKASQNVDNRGVSYVHWYQQKPGQAPKLLIYKGSNLAFGVPSRFSGSGSGTDFTLTISSLQPEDFATYYCQQSKGHPDTFGAGTKLELK
As to B9, in test [1], the “Bioassay … 1st experiment” value was 1.6 relative to 2D8; the “Bioassay … 2nd experiment” value was 2.8 relative to 2D8; the “Bioassay (IC50 in relation to 2D8), Mean” value was 2.2 relative to 2D8.

B10: DEI2/4 (antibody, V domains shown)
VH: QLQLQESGPGLVKPSQTLSLTCTVSGLSLTSNSITWVRQAPGQGLEWMGMIWSNGDTDYSTSLKSRLTISKDTSKSQVVLTMTNMDPVDTATYYCARYNYYFDYWGQGTLVTVSS
VL: DIVLTQSPATLSLSPGERATLSCKASQNVDNRGVSYVHWYQQKPGQAPKLLIYKGSNLAFGVPARFSGSGSGTDFTLTISSLQPEDFATYYCQQSKGHPDTFGAGTKLELK
notes: also called combination of HURDIVHv2 and HURDIVKv4
Consider B10, for which, in test [2], the “ELISA … 1st experiment” value was 1.5 relative to 2D8; the “ELISA … 2nd experiment” value is 1.8 relative to 2D8; the “ELISA … mean” value is 1.7 relative to 2D8. In addition, in test [1], the “Bioassay … 1st experiment” value is 2.5 relative to 2D8; the “Bioassay … 2nd experiment” value was 2 relative to 2D8; the “Bioassay (IC50 in relation to 2D8), Mean” value was 2.3 relative to 2D8.

B11: DEI2/8 (antibody, V domains shown)
VH: QLQLQESGPGLVKPSQTLSLTCTVSGLSLTSNSITWVRQAPGQGLEWMGMIWSNGDTDYSTSLKSRLTISKDTSKSQVVLTMTNMDPVDTATYYCARYNYYFDYWGQGTLVTVSS
VL: DIVLTQSPATLSLSPGERATLSCKASQNVDNRGVSYVHWYQQKPGQAPKLLIYKGSNLAFGVPSRFSGSGSGTDFTLTISSLQPEDFATYFCQQSKGHPDTFGAGTKLELK
notes: also called combination of HURDIVHv2 and HURDIVKv8
On to B11, for which, in test [2], the “ELISA … 1st experiment” value is 1.5 relative to 2D8; the “ELISA … 2nd experiment” value is 2.6 relative to 2D8; the “ELISA … mean” value was 2.1 relative to 2D8. In addition, in test [1], the “Bioassay … 1st experiment” value is 3.3 relative to 2D8; the “Bioassay … 2nd experiment” value was 1.4 relative to 2D8; the “Bioassay (IC50 in relation to 2D8), Mean” value is 2.4 relative to 2D8.
